The text below walks through data of patent US20120329067, “Methods of Generating Zinc Finger Nucleases Having Altered Activity” (published 2012).

Data set [1] concerns the target E5 zinc finger protein (five C-terminal fingers of E2C) (artificial). Put plainly: EMSA. Conditions: tags: no cleavage domain. Background: A gel shift assay detects complexes by their altered migration in electrophoresis.
Data set [2] deals with E3 zinc finger protein (three C-terminal fingers of E2C) (artificial). Put plainly: EMSA. Conditions: tags: no cleavage domain.
Chain of E3 zinc finger protein (three C-terminal fingers of E2C) (artificial) (chain, as listed by the source): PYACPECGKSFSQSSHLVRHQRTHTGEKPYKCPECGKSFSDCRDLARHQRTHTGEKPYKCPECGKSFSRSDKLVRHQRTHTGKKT
The target in data set [3] is E4 zinc finger protein (four C-terminal fingers of E2C) (artificial). The data set can be described thus: EMSA. Conditions: tags: no cleavage domain.
Chain of E4 zinc finger protein (four C-terminal fingers of E2C) (artificial) (chain, as listed by the source): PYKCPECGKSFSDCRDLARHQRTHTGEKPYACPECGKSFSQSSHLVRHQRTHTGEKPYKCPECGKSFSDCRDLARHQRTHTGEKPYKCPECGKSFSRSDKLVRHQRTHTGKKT
Data set [4] addresses E6 (E2C) six-finger zinc finger protein (artificial). Put plainly: EMSA. Conditions: tags: no cleavage domain.
For a further data set, the target named is P3 ZFN FCD K441E (artificial, UniProt P14870 SEQ:1-284, K441E (FokI numbering)). Put plainly: cell_activity. Conditions: chain copies: 2 inferred.
Chain of P3 ZFN FCD K441E (P14870 other isoform, or with tags, fused parts or gaps K441E (FokI numbering) | K441E K441E): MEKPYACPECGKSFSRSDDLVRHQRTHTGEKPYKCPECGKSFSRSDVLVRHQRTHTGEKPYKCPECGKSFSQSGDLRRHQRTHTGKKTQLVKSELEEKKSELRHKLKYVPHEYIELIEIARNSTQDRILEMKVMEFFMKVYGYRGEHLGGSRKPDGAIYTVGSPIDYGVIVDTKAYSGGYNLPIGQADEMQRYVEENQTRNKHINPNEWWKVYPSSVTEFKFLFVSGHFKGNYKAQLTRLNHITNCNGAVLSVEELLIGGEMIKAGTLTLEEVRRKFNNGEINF
The next data set concerns the target P3 ZFN FCD S418P (artificial, UniProt P14870 SEQ:1-284, S418P (FokI numbering)). Put plainly: cell_activity. Conditions: chain copies: 2 inferred.

Chain of P3 ZFN FCD S418P (P14870 other isoform, or with tags, fused parts or gaps S418P (FokI numbering) | S418P S418P): as the sequence (P14870 other isoform, or with tags, fused parts or gaps K441E (FokI numbering) | K441E K441E) above, with S123P, E146K counted along it
Chain of E5 zinc finger protein (five C-terminal fingers of E2C) (artificial) (chain, as listed by the source): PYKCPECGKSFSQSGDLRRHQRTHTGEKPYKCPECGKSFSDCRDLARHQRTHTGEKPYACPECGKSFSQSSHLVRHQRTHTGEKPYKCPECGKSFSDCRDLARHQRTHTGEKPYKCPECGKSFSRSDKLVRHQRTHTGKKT
Chain of E6 (E2C) six-finger zinc finger protein (artificial) (chain, as listed by the source): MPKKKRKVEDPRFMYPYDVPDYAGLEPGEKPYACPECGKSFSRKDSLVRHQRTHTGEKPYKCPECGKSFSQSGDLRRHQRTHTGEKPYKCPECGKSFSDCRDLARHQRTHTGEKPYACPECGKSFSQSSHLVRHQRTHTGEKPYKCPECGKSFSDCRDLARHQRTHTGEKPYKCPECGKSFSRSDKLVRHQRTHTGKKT

B1: E5 binding site (dsDNA)
DNA 1: GGGGCCGGAGCCGCA
DNA 2: TGCGGCTCCGGCCCC
One may read the Kd as the free concentration of one partner at which half of the binding sites on the other are occupied at equilibrium, for simple one-to-one binding. A higher Kd goes with weaker binding. Molecule B1 registered a Kd in data set [1] of 4.2 nM.

B2: E3 binding site (dsDNA)
DNA 1: GGGGCCGGA
DNA 2: TCCGGCCCC
For B2, the affinity in data set [2], expressed as Kd, was 35 nM.

B3: E4 binding site (dsDNA)
DNA 1: GGGGCCGGAGCC
DNA 2: GGCTCCGGCCCC
In the case of B3, binding in data set [3] was characterised by a dissociation constant (Kd) of 10.6 nM.

B4: E6 (E2C) binding site (dsDNA)
DNA 1: GGGGCCGGAGCCGCAGTG
DNA 2: CACTGCGGCTCCGGCCCC
B4 returned a Kd in data set [4] of 0.85 nM.

B5: P3/P3 cleavage site, MluI spacer (dsDNA)
DNA 1: CGCCACTGCACGCGTGCAGTGGCG
DNA 2: CGCCACTGCACGCGTGCAGTGGCG
For B5, the binding signal was > 5 fold of wt FCD activity in the data set with P3 ZFN FCD K441E and > 10 fold of wt FCD activity in the data set with P3 ZFN FCD S418P.
